According to article PMC3407115, “Characterization of Danio rerio Mn^2+-Dependent ADP-Ribose/CDP-Alcohol Diphosphatase, the Structural Prototype of the ADPRibase-Mn-Like Protein Family” (PLoS ONE, 2012):

Experiments:
rat ADPRibase-Mn = molecular target: T1, rat ADPRibase-Mn (Rattus norvegicus, UniProt Q5M886); test: hydrolysis assay; type: biochemical; conditions: behaves as with the zebrafish enzyme; no number given
T1 construct: gene Adprm
T1 sequence (Q5M886 1-337): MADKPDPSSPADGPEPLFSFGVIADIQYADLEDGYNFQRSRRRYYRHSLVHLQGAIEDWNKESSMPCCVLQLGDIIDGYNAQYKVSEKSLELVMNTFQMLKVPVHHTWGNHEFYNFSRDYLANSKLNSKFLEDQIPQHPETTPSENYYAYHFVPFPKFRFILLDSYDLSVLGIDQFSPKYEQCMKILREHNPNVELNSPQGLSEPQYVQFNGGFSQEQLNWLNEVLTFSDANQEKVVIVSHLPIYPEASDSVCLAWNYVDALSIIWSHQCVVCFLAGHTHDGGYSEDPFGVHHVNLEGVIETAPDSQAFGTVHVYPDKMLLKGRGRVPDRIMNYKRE

[1] = substrate: N=c1c2ncn3c2ncn1[C@@H]1O[C@H](COP(=O)(O)OP(=O)(O)OC[C@H]2O[C@@H]3[C@H](O)[C@@H]2O)[C@@H](O)[C@H]1O; test: estimated from inhibition of ADP-ribose hydrolysis by cADPR (equation II); type: biochemical, Danio rerio; conditions: competitive inhibition assumed, Ki taken as Km; 160 µM cADPR against 80 µM ADP-ribose
Source text: estimated from inhibition of ADP-ribose hydrolysis by cADPR (equation II) on zebrafish ADPRibase-Mn

[2] = substrate: NCCOP(=O)(O)OP(=O)(O)OC[C@H]1O[C@@H](n2ccc(N)nc2=O)[C@H](O)[C@@H]1O; test: phosphate release coupled to alkaline phosphatase; Michaelis-Menten fit; type: biochemical, Danio rerio; conditions: 5 mM MnCl2, 50 mM Tris-HCl pH 7.5
Source text: (§1) phosphate release coupled to alkaline phosphatase; Michaelis-Menten fit on zebrafish ADPRibase-Mn

[3] = substrate: Nc1ncnc2c1ncn2[C@@H]1O[C@H](COP(=O)(O)OP(=O)(O)O)[C@@H](O)[C@H]1O; test: as above; type: biochemical, Danio rerio; conditions: 5 mM MnCl2, 50 mM Tris-HCl pH 7.5
Source text: as §1

[4] = substrate: Nc1ccn([C@@H]2O[C@H](COP(=O)(O)OP(=O)(O)OC[C@H](O)CO)[C@@H](O)[C@H]2O)c(=O)n1; test: as above; type: biochemical, Danio rerio; conditions: 5 mM MnCl2, 50 mM Tris-HCl pH 7.5
Source text: as §1

[5] = substrate: C[N+](C)(C)CCOP(=O)(O)OP(=O)([O-])OC[C@H]1O[C@@H](n2ccc(N)nc2=O)[C@H](O)[C@@H]1O; test: as above; type: biochemical, Danio rerio; conditions: 5 mM MnCl2, 50 mM Tris-HCl pH 7.5
Source text: as §1

[6] = substrate: Nc1ncnc2c1ncn2[C@@H]1O[C@H](CO)[C@H]2OP(=O)(O)O[C@H]21; test: as above; type: biochemical, Danio rerio; conditions: 5 mM MnCl2, 50 mM Tris-HCl pH 7.5, total activity (P-O2′ plus P-O3′ hydrolysis)
Source text: as §1

Nc1ncnc2c1ncn2[C@@H]1O[C@H](CO)[C@H]2OP(=O)(O)O[C@H]21 [2′,3′-cAMP]
hydrolysis assay (rat ADPRibase-Mn): we did it now and found them to behave as with the zebrafish enzyme

B1: zebrafish ADPRibase-Mn (Danio rerio; M1S) (protein)
chain: SEDPVFTFGLIADVQYADIEDGENYLRTRRRYYRGSADLLRDAVLQWRRERVQCVVQLGDIIDGHNRRRDASDRALDTVMAELDACSVDVHHVWGNHEFYNFSRPSLLSSRLNSAQRTGTDTGSDLIGDDIYAYEFSPAPNFRFVLLDAYDLSVIGREEESEKHTHSWRILTQHNHNLQDLNLPPVSVGLEQRFVKFNGGFSEQQLQWLDAVLTLSDHKQERVLIFSHLPVHPCAADPICLAWNHEAVLSVLRSHQSVLCFIAGHDHDGGRCTDSSGAQHITLEGVIETPPHSHAFATAYLYEDRMVMKGRGRVEDLTITYS
notes: full-length ORF (BC054642 region 60-1028), N-terminal Met replaced by Ser; 8-His-MBP-TEV fusion expressed in E. coli BL21, tag cut with TEV protease
Km [1]: 0.19 ± 0.025 mM
kcat [1]: 0.005 s⁻¹
kcat/Km [1]: 28 ± 3 M⁻¹ s⁻¹
Km [2]: 3.9 ± 1.3 mM
kcat [2]: 125 s⁻¹
kcat/Km [2]: 32000 ± 300 M⁻¹ s⁻¹
Km [3]: 2.65 ± 1.3 mM
kcat [3]: 1.8 s⁻¹
kcat/Km [3]: 660 ± 70 M⁻¹ s⁻¹
Km [4]: 2 ± 1.4 mM
kcat [4]: 95.6 s⁻¹
kcat/Km [4]: 48000 ± 700 M⁻¹ s⁻¹
Km [5]: 12 ± 3 mM
kcat [5]: 67.2 s⁻¹
kcat/Km [5]: 5600 ± 800 M⁻¹ s⁻¹
Km [6]: 0.76 ± 0.05 mM
kcat [6]: 16.9 s⁻¹
kcat/Km [6]: 22000 ± 3000 M⁻¹ s⁻¹

B2: zebrafish ADPRibase-Mn (Danio rerio; H97A/M1S) (protein)
chain: SEDPVFTFGLIADVQYADIEDGENYLRTRRRYYRGSADLLRDAVLQWRRERVQCVVQLGDIIDGHNRRRDASDRALDTVMAELDACSVDVHHVWGNAEFYNFSRPSLLSSRLNSAQRTGTDTGSDLIGDDIYAYEFSPAPNFRFVLLDAYDLSVIGREEESEKHTHSWRILTQHNHNLQDLNLPPVSVGLEQRFVKFNGGFSEQQLQWLDAVLTLSDHKQERVLIFSHLPVHPCAADPICLAWNHEAVLSVLRSHQSVLCFIAGHDHDGGRCTDSSGAQHITLEGVIETPPHSHAFATAYLYEDRMVMKGRGRVEDLTITYS
notes: as for B1
Km [2]: 31 ± 0.8 mM
kcat [2]: 2.1 s⁻¹
kcat/Km [2]: 70 ± 20 M⁻¹ s⁻¹
Km [3]: 19 ± 0.7 mM
kcat [3]: 0.2 s⁻¹
kcat/Km [3]: 11 ± 5 M⁻¹ s⁻¹
Km [4]: 6.3 ± 0.9 mM
kcat [4]: 0.8 s⁻¹
kcat/Km [4]: 120 ± 30 M⁻¹ s⁻¹
Km [5]: 43 ± 8 mM
kcat [5]: 0.8 s⁻¹
kcat/Km [5]: 20 ± 5 M⁻¹ s⁻¹
Km [6]: 1.7 ± 0.24 mM
kcat [6]: 29.7 s⁻¹
kcat/Km [6]: 18000 ± 1000 M⁻¹ s⁻¹
